Laboratory results from US20200131227A1, “POLYPEPTIDE WITH TUMOUR BINDING ACTIVITY” (RUPRECHT-KARLS-UNIVERSITÄT HEIDELBERG, priority 2017, published 2020).
“Also recorded” adds a separate entry of the source. Where a SMILES comes first, the peptide text is derived from it. Bridges are numbered along the chain shown (N, C = ends). Where no end group is shown, it is not given here.

What was measured:
HNO399 xenografts = assay: Biodistribution, HNO399 xenografts; assay type: in vivo, mice
[1] = Serum stability assay (radio-HPLC); assay type: in vitro ADME, human; settings: radio-HPLC, 37° C., up to 24 hours
Method: Five MBq of the purified ^131I-radiolabeled peptide was incubated in 300 μL human serum at 37° C. After different time intervals (15 min to 24 hours) 20 μL serum was precipitated with 40 μL acetonitrile. The stability of the labeled peptide in the supernatant was monitored by radio-HPLC at selected time points using a chromolith performance RP18ec column (3 mm×100 mm) equipped with a gamma detector (Packard COBRA™ Auto-Gamma, GMI). Separation condition was a gradient of 0% to 60% aqueous acetonitrile supplemented with 0.1% TFA over 10 min with a flow rate of 2 mL/min.

[2] = tested on: HNSCC tumor sections (HNO97 xenograft, HNO444, HNO399, HNO210); assay: Histochemical peptide staining of HNSCC tumor cryosections; parameters: species or system human; settings: biotinylated PEG(12)-peptide, 10^-5 M
Method: Staining with the biotinylated PEG(12)-SFITGv6 peptide was performed on acetone-fixed cryosections (5 μm) of tumor tissues after blocking of unspecific binding using the Avidin/Biotin Blocking Kit (SP-2001, Vector Laboratories). A stock solution of the lyophilized peptide was prepared by dilution in 5% aqueous DMSO. Slices were incubated overnight at 4° C. with 10^-5 M peptide concentration in antibody diluent (DAKO). Detection of bound peptide was carried out with the Vectastain Elite ABC Kit (PK-6100, Vector Laboratories) according to manufacturer's protocol. Peptide specificity was ensured by a scrambled (GRD) PEG(12)-SFITGv6 derivate, the somatostatin receptor ligand DOTATOC and negative controls (without peptide or primary antibody) Staining results were assessed by bright field microscopy (BX50) with the SC30 camera and the cell Sense software (all Olympus).
Immunohistochemical stainings were performed by use of the biotinylated PEG(12)-labled peptides (SFITGv6, SFLAP3) on 5 μm acetone-fixed tumor tissue cryosections. To prevent background staining we initially applied the Avidin/Biotin Blocking Kit (SP-2001, Vector Laboratories). The lyophilized peptides were diluted in 5% aqueous DMSO preparing a 1 mM Stock solution. The HNSCC cryosections were incubated with 10^−5 M peptide concentration in antibody diluent (DAKO) at 4° C. overnight. To detect bound peptide the Vectastain Elite ABC Kit (PK-6100, Vector Laboratories) was applied according to manufacturer's protocol. Peptide binding specificity was ensured by use of a peptide derivate (scrambled control) and negative controls (without peptide). Due to instability of the peptide binding staining results were assessed on the same day by bright field microscopy (BX50) with the SC30 camera and the cell Sense software (all Olympus).

HNO223 xenografts = assay: Biodistribution, HNO223 xenografts; assay type: in vivo, mice
ITGαvβ3 = ITGαvβ3 (Homo sapiens, UniProt P05106+P06756); assay: Surface plasmon resonance assay (SPR), ITGαvβ3; assay type: binding; settings: SPR
Chain of ITGαvβ3 (P06756 31-992 limits assumed): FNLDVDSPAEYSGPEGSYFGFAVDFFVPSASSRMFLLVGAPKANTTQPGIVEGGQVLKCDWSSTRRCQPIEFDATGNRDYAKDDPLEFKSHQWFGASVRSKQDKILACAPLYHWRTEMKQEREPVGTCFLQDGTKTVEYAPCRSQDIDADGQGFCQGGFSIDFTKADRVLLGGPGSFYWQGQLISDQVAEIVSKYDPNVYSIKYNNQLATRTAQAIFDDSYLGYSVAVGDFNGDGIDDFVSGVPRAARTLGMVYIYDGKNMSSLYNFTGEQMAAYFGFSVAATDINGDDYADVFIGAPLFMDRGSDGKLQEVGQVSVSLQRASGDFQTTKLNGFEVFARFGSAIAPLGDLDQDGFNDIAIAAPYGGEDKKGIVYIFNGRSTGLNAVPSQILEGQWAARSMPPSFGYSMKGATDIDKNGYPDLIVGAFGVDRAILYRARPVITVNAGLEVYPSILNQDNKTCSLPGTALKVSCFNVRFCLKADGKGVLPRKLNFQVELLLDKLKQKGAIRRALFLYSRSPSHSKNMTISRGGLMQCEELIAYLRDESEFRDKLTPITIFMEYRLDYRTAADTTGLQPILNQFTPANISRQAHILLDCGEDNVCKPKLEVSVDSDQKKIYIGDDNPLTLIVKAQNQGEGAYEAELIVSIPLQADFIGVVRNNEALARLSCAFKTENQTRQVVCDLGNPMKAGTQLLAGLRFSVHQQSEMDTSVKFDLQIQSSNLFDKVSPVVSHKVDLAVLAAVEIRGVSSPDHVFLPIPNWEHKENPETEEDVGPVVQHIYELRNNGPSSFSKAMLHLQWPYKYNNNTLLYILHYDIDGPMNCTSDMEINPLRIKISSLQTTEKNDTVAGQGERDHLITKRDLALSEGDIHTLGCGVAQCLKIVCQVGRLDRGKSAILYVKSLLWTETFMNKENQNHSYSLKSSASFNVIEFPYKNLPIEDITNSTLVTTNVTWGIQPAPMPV
Chain of ITGαvβ3 (P05106 27-718 limits assumed): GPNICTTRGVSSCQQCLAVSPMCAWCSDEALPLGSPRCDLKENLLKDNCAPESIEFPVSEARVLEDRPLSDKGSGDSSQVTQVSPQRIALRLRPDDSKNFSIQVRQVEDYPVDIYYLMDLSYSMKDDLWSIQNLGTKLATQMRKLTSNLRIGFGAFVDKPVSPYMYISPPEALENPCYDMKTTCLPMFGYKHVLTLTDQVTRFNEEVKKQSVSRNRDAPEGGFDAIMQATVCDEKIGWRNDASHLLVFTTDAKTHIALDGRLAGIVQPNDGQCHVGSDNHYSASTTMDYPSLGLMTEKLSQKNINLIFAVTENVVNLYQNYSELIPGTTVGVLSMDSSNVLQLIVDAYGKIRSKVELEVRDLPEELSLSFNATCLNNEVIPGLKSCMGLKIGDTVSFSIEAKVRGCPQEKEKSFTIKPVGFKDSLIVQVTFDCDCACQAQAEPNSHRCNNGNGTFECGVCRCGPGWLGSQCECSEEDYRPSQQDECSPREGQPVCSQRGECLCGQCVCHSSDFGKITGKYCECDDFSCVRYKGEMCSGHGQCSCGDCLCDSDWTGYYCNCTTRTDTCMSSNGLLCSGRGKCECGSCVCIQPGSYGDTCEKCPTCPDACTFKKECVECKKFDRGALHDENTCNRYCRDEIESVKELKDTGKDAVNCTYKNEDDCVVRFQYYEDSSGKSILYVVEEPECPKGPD
Method: (§1) Assessment of the binding affinity was performed on a BiaCore X100 (GE Healthcare). To avoid denaturation of the heterodimer during amide activation ITGαvβ6 and ITGαvβ3, respectively, were used as analytes and SFITGv6 was immobilized at its N-terminus on a C1 sensor Chip (BR-1005-35, GE Healthcare) using a manual amine coupling protocol. Briefly, after activation of the sensor chip surface with a solution of EDC 0.4 M/NHS 0.1 M for 5 min a 100 μM peptide dissolved in HBS-EP running buffer (0.1 M HEPES, 30 mM EDTA, 1.5 M NaCl, 0.5% surfactant P20, pH 7.2) was immobilized with a contact time of 30 sec until a loading level of 18 response units (RU) was obtained. […] The SPR-sensogram data were evaluated with the BiaCore evaluation software. The dissociation constant (KD) was determined by a 1:1 Langmuir model fit of the SPR-sensograms.
as §1, with “SFLAP3” for “peptide”, “to obtain” for “until”, “12” for “18”, “(RU).” for “(RU) was obtained.”, “SPR sensogram” for “SPR-sensogram”, “SPR sensograms.” for “SPR-sensograms.”

[3] = molecular target: integrin αvβ6 (ITGαvβ6) as expressed on human carcinoma cell lines and tumor tissue sections (human) (UniProt P06756); assay: peptide competing with 125I-SFITGv6 on HNO97 cells, 60 min
Chain of integrin αvβ6 (ITGαvβ6) as expressed on human carcinoma cell lines and tumor tissue sections (human) (P06756 31-1048, chain 1 of 2): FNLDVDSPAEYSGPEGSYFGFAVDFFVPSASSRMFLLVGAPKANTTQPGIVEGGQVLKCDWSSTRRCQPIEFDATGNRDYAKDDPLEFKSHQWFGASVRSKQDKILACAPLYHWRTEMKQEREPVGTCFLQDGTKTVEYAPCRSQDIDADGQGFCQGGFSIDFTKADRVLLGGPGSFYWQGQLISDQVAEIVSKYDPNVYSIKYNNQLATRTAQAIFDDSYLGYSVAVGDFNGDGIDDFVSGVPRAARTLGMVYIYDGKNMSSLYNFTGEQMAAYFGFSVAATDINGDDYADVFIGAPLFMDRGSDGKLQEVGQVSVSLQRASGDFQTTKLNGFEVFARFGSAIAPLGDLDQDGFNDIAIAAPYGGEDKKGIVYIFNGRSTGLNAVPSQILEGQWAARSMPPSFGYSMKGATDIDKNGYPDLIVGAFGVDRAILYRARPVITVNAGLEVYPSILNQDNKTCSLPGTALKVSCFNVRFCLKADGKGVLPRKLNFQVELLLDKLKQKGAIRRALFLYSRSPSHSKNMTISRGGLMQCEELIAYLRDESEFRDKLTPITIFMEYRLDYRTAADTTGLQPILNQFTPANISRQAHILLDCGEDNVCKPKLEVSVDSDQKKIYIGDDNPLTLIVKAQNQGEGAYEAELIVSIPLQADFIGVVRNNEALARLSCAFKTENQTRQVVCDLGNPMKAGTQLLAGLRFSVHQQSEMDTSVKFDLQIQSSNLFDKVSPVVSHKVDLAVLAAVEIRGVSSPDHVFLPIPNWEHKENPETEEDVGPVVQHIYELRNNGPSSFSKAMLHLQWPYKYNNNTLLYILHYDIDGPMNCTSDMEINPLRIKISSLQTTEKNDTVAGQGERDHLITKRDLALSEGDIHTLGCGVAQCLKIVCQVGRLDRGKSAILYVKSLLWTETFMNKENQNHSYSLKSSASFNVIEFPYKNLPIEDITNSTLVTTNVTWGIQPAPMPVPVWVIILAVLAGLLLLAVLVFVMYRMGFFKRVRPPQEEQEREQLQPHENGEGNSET
Chain of integrin αvβ6 (ITGαvβ6) as expressed on human carcinoma cell lines and tumor tissue sections (human) (P18564 22-788, chain 2 of 2, further chain): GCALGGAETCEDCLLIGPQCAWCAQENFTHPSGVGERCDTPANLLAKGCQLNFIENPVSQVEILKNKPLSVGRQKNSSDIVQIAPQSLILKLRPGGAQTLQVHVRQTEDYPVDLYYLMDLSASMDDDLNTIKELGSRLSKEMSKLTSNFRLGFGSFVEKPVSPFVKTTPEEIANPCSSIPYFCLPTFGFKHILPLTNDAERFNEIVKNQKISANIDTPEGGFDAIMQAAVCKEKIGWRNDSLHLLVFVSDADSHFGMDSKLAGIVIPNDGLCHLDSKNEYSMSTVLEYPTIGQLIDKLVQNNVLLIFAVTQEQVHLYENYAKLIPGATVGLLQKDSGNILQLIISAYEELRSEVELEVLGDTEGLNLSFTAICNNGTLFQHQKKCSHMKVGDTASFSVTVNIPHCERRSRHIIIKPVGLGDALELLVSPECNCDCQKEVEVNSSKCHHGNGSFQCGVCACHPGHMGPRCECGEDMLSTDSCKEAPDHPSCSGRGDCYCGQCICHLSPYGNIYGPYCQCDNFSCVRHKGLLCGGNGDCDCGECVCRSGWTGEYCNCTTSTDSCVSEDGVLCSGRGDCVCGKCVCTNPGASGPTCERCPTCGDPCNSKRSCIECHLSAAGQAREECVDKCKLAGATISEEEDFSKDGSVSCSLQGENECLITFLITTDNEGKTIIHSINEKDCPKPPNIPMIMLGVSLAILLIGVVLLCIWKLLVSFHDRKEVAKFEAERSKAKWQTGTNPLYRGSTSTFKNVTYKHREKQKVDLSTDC

[4] = molecular target: T1, integrin αvβ6 (ITGαvβ6) as expressed on human carcinoma cell lines and tumor tissue sections (human, UniProt P06756 31-1048; P18564 22-788); assay: unlabeled peptide competing with 125I-SFITGv6 on HNSCC cell lines (HNO97, HNO399, HNO223), mean; mean over HNSCC cell lines
T1 construct: whole, on cells; also called ITGAVB6; ITGαvβ6-expressing HNO97 cells
T1 sequence (P06756 31-1048, chain 1 of 2): as the sequence (P06756 31-1048, chain 1 of 2) above
T1 sequence (P18564 22-788, chain 2 of 2): as the sequence (P18564 22-788, chain 2 of 2, further chain) above

[5] = molecular target: T2, ITGαvβ3 heterodimer (analyte in SPR) (UniProt P06756 31-992; P05106 27-718, limits assumed); assay: SPR (BiaCore X100), peptide immobilised on C1 chip, ITGαvβ3 as analyte, 1:1 Langmuir fit; SPR, ITGαvβ3 as analyte
T2 construct: Soluble heterodimer used as analyte over immobilised peptide; construct not described
T2 sequence (P06756 31-992 limits assumed, chain 1 of 2): as the sequence (P06756 31-992 limits assumed) above
T2 sequence (P05106 27-718 limits assumed, chain 2 of 2): as the sequence (P05106 27-718 limits assumed) above

[6] = molecular target: T1, integrin αvβ6 (ITGαvβ6) as expressed on …; assay: unlabeled peptide competing with 125I-SFITGv6 on HNO97 cells, 60 min; HNO97 cells, cell competition IC50
[7] = molecular target: T1, integrin αvβ6 (ITGαvβ6) as expressed on …; assay: 125I-peptide binding to HNO223 cells, 60 min
[8] = molecular target: T2, ITGαvβ3 heterodimer (analyte in SPR); assay: SPR, ITGαvβ3 against ITGαvβ6 on immobilised SFITGv6
[9] = molecular target: T1, integrin αvβ6 (ITGαvβ6) as expressed on …; assay: unlabeled peptide (10^-10 to 10^-4 M) competing with the 125I-labeled peptide on HNO97 cells
[10] = molecular target: T1, integrin αvβ6 (ITGαvβ6) as expressed on …; assay: 125I-peptide binding to HNO210 cells, 60 min
[11] = molecular target: T1, integrin αvβ6 (ITGαvβ6) as expressed on …; assay: 125I-peptide binding to HNO97 cells, 60 min
[12] = molecular target: T1, integrin αvβ6 (ITGαvβ6) as expressed on …; assay: 125I-peptide binding to HNO199 cells, 60 min
[13] = molecular target: T1, integrin αvβ6 (ITGαvβ6) as expressed on …; assay: competition of unlabeled SFLAP3 with 125I-SFLAP3 on HNO97 cells
[14] = molecular target: T1, integrin αvβ6 (ITGαvβ6) as expressed on …; assay: unlabeled peptide competing with 125I-SFLAP3 on HNSCC cell lines (HNO97, HNO399, HNO223), mean; mean over HNSCC cell lines
[15] = molecular target: T1, integrin αvβ6 (ITGαvβ6) as expressed on …; assay: competition of unlabeled SFLAP3 with 125I-SFLAP3 on HNO399 cells
[16] = molecular target: T2, ITGαvβ3 heterodimer (analyte in SPR); assay: SPR (BiaCore X100), peptide immobilised on C1 chip, ITGαvβ3 as analyte, 1:1 Langmuir fit; SPR, αvβ3 as analyte
[17] = molecular target: T2, ITGαvβ3 heterodimer (analyte in SPR); assay: SPR, αvβ3 heterodimer against ITGαvβ6 on immobilised SFLAP3
[18] = molecular target: T3, ITGαvβ6 heterodimer (analyte in SPR) (UniProt P06756 31-992; P18564 22-707, limits assumed); assay: SPR (BiaCore X100), peptide immobilised on C1 chip, ITGαvβ6 as analyte, 1:1 Langmuir fit; SPR, ITGαvβ6 as analyte
T3 construct: Soluble heterodimer used as analyte over immobilised peptide; construct not described; also called heterodimeric receptor ITGαvβ6
T3 sequence (P06756 31-992 limits assumed, chain 1 of 2): as the sequence (P06756 31-992 limits assumed) above
T3 sequence (P18564 22-707 limits assumed, chain 2 of 2): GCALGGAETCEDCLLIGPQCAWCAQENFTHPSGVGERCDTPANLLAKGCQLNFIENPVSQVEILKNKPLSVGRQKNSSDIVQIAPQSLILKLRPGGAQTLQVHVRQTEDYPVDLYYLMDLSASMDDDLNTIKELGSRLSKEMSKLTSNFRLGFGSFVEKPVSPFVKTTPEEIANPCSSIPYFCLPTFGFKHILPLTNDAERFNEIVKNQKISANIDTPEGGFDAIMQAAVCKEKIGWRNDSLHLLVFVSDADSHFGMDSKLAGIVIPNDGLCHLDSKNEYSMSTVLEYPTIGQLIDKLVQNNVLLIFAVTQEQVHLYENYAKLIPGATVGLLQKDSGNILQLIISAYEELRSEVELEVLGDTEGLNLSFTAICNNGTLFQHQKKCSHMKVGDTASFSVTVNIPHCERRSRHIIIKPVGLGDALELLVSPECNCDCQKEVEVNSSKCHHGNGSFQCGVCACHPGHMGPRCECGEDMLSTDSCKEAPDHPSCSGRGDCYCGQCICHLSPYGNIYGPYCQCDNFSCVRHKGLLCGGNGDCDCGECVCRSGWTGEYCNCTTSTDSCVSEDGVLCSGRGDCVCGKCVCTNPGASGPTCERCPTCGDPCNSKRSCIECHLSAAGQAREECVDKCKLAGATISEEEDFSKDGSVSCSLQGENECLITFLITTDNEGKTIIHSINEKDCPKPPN

[19] = molecular target: T1, integrin αvβ6 (ITGαvβ6) as expressed on …; assay: competition of unlabeled SFLAP3 with 125I-SFLAP3 on HNO223 cells

CC(C)C[C@@H]1NC(=O)[C@H](CC(=O)O)NC(=O)CNC(=O)[C@H](CCCNC(=N)N)NC(=O)CNC(=O)[C@H]([C@@H](C)O)NC(=O)[C@@H](NC(=O)[C@H](CCCNC(=N)N)NC(=O)CN)CSSC[C@@H](C(=O)N[C@@H](Cc2ccc(O)cc2)C(=O)N2CCC[C@H]2C(=O)N[C@@H](CC(=O)O)C(=O)O)NC(=O)[C@H](CC(C)C)NC(=O)[C@H](CCCNC(=N)N)NC(=O)CNC1=O [SFLAP3, H2N-G-R-C1-T-G-R-G-D-L-G-R-L-C2-Y-P-D-COOH] (H-GRCTGRGDLGRLCYPD-OH; disulfide 3-13)
maximum accumulation in the tumor lesion (HNO399 xenografts; 60 min post injection): 3.6 % ID/g | accumulation in the tumor after decrease (HNO399 xenografts; 360 min after injection): ~2% | proteolytic stability in human serum [1]: no degradation over a 24 hours; also recorded: shown for up to 24 hours | histochemical peptide staining result [2]: slightly fainter staining capacity | maximum accumulation in the tumor lesion (HNO223 xenografts; 60 min post injection, HNO233-xenografted as printed): 3.4 % ID/g | accumulation in the tumor after decrease (HNO223 xenografts; 360 min after injection): ~2% | lower affinity for ITGαvβ3 than for ITGαvβ6 (ITGαvβ3): 10 fold

A20FMDV2 (peptide)
IC50 [3]: 3.2 nM

B1: SFITGv6 (peptide)
peptide: GRCTFRGDLMQLCYPD
modifications: disulfide 3-13 (inferred); not fully specified (C-terminus); also: 125I on the tyrosine in labelled tracer form
notes: Synthetic SFTI-1 derivate
IC50 [4]: 14.1 nM | Kd [5]: 185 nM | IC50 [6]: 16.1 nM | percent of applied dose bound per 10^6 cells [7]: 13.5% | fold lower affinity than for ITGαvβ6 [8]: 10 fold

B2: SFPF-10 (peptide)
peptide: GRCTFRGDKMQLCYPD
modifications: disulfide 3-13 (inferred); also: 125I on the tyrosine in labelled tracer form
notes: Originally selected peptide of the SFTI8Ph library
IC50 [9]: 18 nM | percent of applied dose bound per 10^6 cells [7]: 11% | percent of applied dose bound per 10^6 cells [10]: 5% | percent of applied dose bound per 10^6 cells [11]: 7.2% | percent of applied dose bound per 10^6 cells [12]: 3.1%

B3: SFLAP3 (peptide)
peptide: GRCTGRGDLGRLCYPD
modifications: disulfide 3-13 (inferred); not fully specified (C-terminus); also: 125I on the tyrosine in labelled tracer form
IC50 [13]: 4.7 nM | IC50 [14]: 3.5 nM | percent of applied dose bound per 10^6 cells [7]: 17.6% | percent of applied dose bound per 10^6 cells [10]: 10.6% | IC50 [15]: 3.25 nM | Kd [16]: 185 nM | fold lower affinity than for ITGαvβ6 [17]: 10 fold | Kd [18]: 7.4 nM | percent of applied dose bound per 10^6 cells [11]: 24.7% | percent of applied dose bound per 10^6 cells [12]: 19.7% | IC50 [19]: 2.56 nM
